Tests used:
[1] = Pharmacokinetics of adalimumab in albumin crystal sugar truffle shell vs IV, plasma adalimumab by ELISA; type: in vivo, Minipigs; parameters: Mean adalimumab levels: unit not given here; settings: 12 mg; for Mean adalimumab levels: plasma, Pigs
Text: The microparticle of albumin crystals containing adalimumab was then lyophilized after washing with cold isopropanol.
(§1) Pigs in the oral treatment group was either fasted overnight or fed prior to the test sample administration. […] The time of dosage of each animal was noted. […] An antibody, anti-adalimumab was pre-coated onto a 96-well plate. […] The intensity of the yellow color is proportional to the adalimumab amount bound on the plate.

[2] = Pharmacokinetics of adalimumab in albumin crystal capsule (Vitamin E) vs IV, plasma adalimumab by ELISA; type: in vivo, Minipigs; parameters: Mean adalimumab levels: unit not given here; settings: 12 mg; for Mean adalimumab levels: plasma, Pigs
Text: The microparticle of albumin crystals containing adalimumab was then lyophilized after washing with cold isopropanol. […] The capsule was then closed.
as §1

adalimumab
AUC 0-inf_obs ([1]; Minipigs): 2387.704908 µg·h/mL
AUC 0-inf_pred ([1]; Minipigs): 2433.025437 µg·h/mL
AUC t-inf_obs ([1]; Minipigs): 1464.822434 µg·h/mL
AUC t-inf_pred ([1]; Minipigs): 1510.142963 µg·h/mL
AUC(0-t) ([1]; Minipigs): 922.8824739 µg·h/mL
AUMC 0-inf_obs ([1]; Minipigs): 476541890.8 ng/ml * h^2
AUMC 0-inf_pred ([1]; Minipigs): 490022798.4 ng/ml * h^2
AUMC 0-t ([1]; Minipigs): 40820243.03 ng/ml * h^2
AUMC 0-t/0-inf_obs ([1]; Minipigs): 0.08566
AUMC 0-t/0-inf_pred ([1]; Minipigs): 0.0833
AUMC t-inf_obs ([1]; Minipigs): 435721647.8 ng/ml * h^2
AUMC t-inf_pred ([1]; Minipigs): 449202555.4 ng/ml * h^2
C0 ([1]; Minipigs): 8311 ng/mL
Cl_obs ([1]; Minipigs): 5.026E−06 (mg)/(ng/ml)/h
Cl_pred ([1]; Minipigs): 4.932E−06 (mg)/(ng/ml)/h
Clast_obs ([1]; Minipigs): 7271 ng/mL
Clast_pred ([1]; Minipigs): 7496 ng/mL
Cmax ([1]; Minipigs): 12110.42857 ng/mL
Lambda_z ([1]; Minipigs): 0.00496 h⁻¹
MRT 0-inf_obs ([1]; Minipigs): 199.6 h
MRT 0-inf_pred ([1]; Minipigs): 201.4 h
MRT 0-t ([1]; Minipigs): 44.23 h
Tlast ([1]; Minipigs): 96 h
Tmax ([1]; Minipigs): 2 h
Vss_obs ([1]; Minipigs): 0.001003 (mg)/(ng/ml)
Vss_pred ([1]; Minipigs): 0.0009934 (mg)/(ng/ml)
Vz_obs ([1]; Minipigs): 0.001012 (mg)/(ng/ml)
Vz_pred ([1]; Minipigs): 0.0009936 (mg)/(ng/ml)
t½ ([1]; Minipigs): 139.6393 h
Mean adalimumab levels ([1]; 0 hrs): 8311.04
Mean adalimumab levels ([1]; 0.08 hrs): 11638.36
Mean adalimumab levels ([1]; 0.5 hrs): 11171.29
Mean adalimumab levels ([1]; 1 hrs): 11637.57
Mean adalimumab levels ([1]; 2 hrs): 11541.29
Mean adalimumab levels ([1]; 4 hrs): 12110.43
Mean adalimumab levels ([1]; 8 hrs): 11914.71
Mean adalimumab levels ([1]; 24 hrs): 11552.57
Mean adalimumab levels ([1]; 48 hrs): 10162.00
Mean adalimumab levels ([1]; 72 hrs): 9803.00
Mean adalimumab levels ([1]; 96 hrs): 8772.00
AUC 0-inf_obs ([2]; Minipigs): 2387.704908 µg·h/mL
AUC 0-inf_pred ([2]; Minipigs): 2433.025437 µg·h/mL
AUC t-inf_obs ([2]; Minipigs): 1464.822434 µg·h/mL
AUC t-inf_pred ([2]; Minipigs): 1510.142963 µg·h/mL
AUC(0-t) ([2]; Minipigs): 922.8824739 µg·h/mL
AUMC 0-inf_obs ([2]; Minipigs): 476541890.8 ng/ml * h^2
AUMC 0-inf_pred ([2]; Minipigs): 490022798.4 ng/ml * h^2
AUMC 0-t ([2]; Minipigs): 40820243.03 ng/ml * h^2
AUMC 0-t/0-inf_obs ([2]; Minipigs): 0.08566
AUMC 0-t/0-inf_pred ([2]; Minipigs): 0.0833
AUMC t-inf_obs ([2]; Minipigs): 435721647.8 ng/ml * h^2
AUMC t-inf_pred ([2]; Minipigs): 449202555.4 ng/ml * h^2
C0 ([2]; Minipigs): 8311 ng/mL
Cl_obs ([2]; Minipigs): 5.026E−06 (mg)/(ng/ml)/h
Cl_pred ([2]; Minipigs): 4.932E−06 (mg)/(ng/ml)/h
Clast_obs ([2]; Minipigs): 7271 ng/mL
Clast_pred ([2]; Minipigs): 7496 ng/mL
Cmax ([2]; Minipigs): 12110.42857 ng/mL
Lambda_z ([2]; Minipigs): 0.00496 h⁻¹
MRT 0-inf_obs ([2]; Minipigs): 199.6 h
MRT 0-inf_pred ([2]; Minipigs): 201.4 h
MRT 0-t ([2]; Minipigs): 44.23 h
Tlast ([2]; Minipigs): 96 h
Tmax ([2]; Minipigs): 2 h
Vss_obs ([2]; Minipigs): 0.001003 (mg)/(ng/ml)
Vss_pred ([2]; Minipigs): 0.0009934 (mg)/(ng/ml)
Vz_obs ([2]; Minipigs): 0.001012 (mg)/(ng/ml)
Vz_pred ([2]; Minipigs): 0.0009936 (mg)/(ng/ml)
t½ ([2]; Minipigs): 139.6393 h
Mean adalimumab levels ([2]; 0 hrs): 8311.04
Mean adalimumab levels ([2]; 0.08 hrs): 11638.36
Mean adalimumab levels ([2]; 0.5 hrs): 11171.29
Mean adalimumab levels ([2]; 1 hrs): 11637.57
Mean adalimumab levels ([2]; 2 hrs): 11541.29
Mean adalimumab levels ([2]; 4 hrs): 12110.43
Mean adalimumab levels ([2]; 8 hrs): 11914.71
Mean adalimumab levels ([2]; 24 hrs): 11552.57
Mean adalimumab levels ([2]; 48 hrs): 10162.00
Mean adalimumab levels ([2]; 72 hrs): 9803.00
Mean adalimumab levels ([2]; 96 hrs): 8772.00
